The text below walks through data of doi:10.1101/2020.06.21.162990 (bioRxiv, 2020).

The data set concerns the molecule itself. Kind of data set: SEC-MALS. Background: Size exclusion chromatography separates by hydrodynamic size, large species first.

B1: recombinant human ADA2 (adenosine deaminase 2), aa29-511 (enzyme, UniProt Q9NZK5 29-511, looked up)
chain: SIDETRAHLLLKEKMMRLGGRLVLNTKEELANERLMTLKIAEMKEAMRTLIFPPSMHFFQAKHLIERSQVFNILRMMPKGAALHLHDIGIVTMDWLVRNVTYRPHCHICFTPRGIMQFRFAHPTPRPSEKCSKWILLEDYRKRVQNVTEFDDSLLRNFTLVTQHPEVIYTNQNVVWSKFETIFFTISGLIHYAPVFRDYVFRSMQEFYEDNVLYMEIRARLLPVYELSGEHHDEEWSVKTYQEVAQKFVETHPEFIGIKIIYSDHRSKDVAVIAESIRMAMGLRIKFPTVVAGFDLVGHEDTGHSLHDYKEALMIPAKDGVKLPYFFHAGETDWQGTSIDRNILDALMLNTTRIGHGFALSKHPAVRTYSWKKDIPIEVCPISNQVLKLVSDLRNHPVATLMATGHPMVISSDDPAMFGAKGLSYDFYEVFMGIGGMKADLRTLKQLAMNSIKYSTLLESEKNTFMEIWKKRWDKFIADVATK
As for B1, the binding result is on record as “binds”.
